The target of the first assay is T1, FHHDbf2-H6Mob1TM9 (Saccharomyces cerevisiae, UniProt P22204+P40484).
T1 construct: made in house; host or cells: Hi5 insect cells (baculovirus)
T1 sequence (P22204 1-572): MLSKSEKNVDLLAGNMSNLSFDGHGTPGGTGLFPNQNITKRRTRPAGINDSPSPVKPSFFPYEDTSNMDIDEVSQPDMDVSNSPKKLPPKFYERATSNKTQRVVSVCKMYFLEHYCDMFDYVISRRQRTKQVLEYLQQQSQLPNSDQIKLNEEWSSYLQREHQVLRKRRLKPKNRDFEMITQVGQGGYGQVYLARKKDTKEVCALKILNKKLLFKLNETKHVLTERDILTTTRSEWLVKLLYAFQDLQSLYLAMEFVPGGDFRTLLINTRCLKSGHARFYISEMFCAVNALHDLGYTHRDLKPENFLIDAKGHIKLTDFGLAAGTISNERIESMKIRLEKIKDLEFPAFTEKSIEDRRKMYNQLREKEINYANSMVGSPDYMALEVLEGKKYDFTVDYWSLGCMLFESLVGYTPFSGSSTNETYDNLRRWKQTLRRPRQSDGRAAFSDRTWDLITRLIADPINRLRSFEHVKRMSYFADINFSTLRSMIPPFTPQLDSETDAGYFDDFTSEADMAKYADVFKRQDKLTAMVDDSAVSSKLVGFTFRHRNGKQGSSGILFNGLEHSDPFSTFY
T1 sequence (P40484 1-314 partner): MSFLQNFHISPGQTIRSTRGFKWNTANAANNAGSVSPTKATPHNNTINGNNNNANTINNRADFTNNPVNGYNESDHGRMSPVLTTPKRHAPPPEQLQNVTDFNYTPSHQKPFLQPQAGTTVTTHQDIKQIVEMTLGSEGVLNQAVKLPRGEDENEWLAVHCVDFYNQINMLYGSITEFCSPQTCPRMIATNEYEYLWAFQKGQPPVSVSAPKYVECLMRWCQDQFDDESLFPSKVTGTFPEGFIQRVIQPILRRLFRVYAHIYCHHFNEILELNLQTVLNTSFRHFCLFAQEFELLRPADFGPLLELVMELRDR
In words: Yeast proteome chip assay. The format is biochemical. The following applies: Table 3; GST fusion proteins on proteome chip, [γ-33P]ATP, chips in duplicate, computer analysis. Here is the method: The relatively low sequence complexity of the Dbf2 phosphorylation motif diminished the power of using genome-wide bioinformatics screens to identify putative substrates. Accordingly, we carried out a proteome array screen to identify putative yeast substrates. […] After taking into account the proteins phosphorylated in the negative controls, 67 proteins were determined to be putative Dbf2-Mob1 substrates (Table 3).
Yeast proteome microarrays were prepared as previously described. Overexpressed GST-tagged yeast proteins were purified from ~4,400 yeast strains and spotted on slides. To determine the optimal amount of kinase to use for probing proteome chips, we performed trial assays as described (J. Ptacek et al., submitted). […] The full proteome array was probed with 4 μl ^FHHDbf2-^H6Mob1^TM9 in 200 μl of DKB supplemented with [γ-^33P]ATP. As a control, ^FHHDbf2(N305A)-^H6Mob1^TM9 was used to probe the proteome array. […] To control for autophosphorylated proteins, the proteome array was probed with 200 μl of DKB supplemented with [γ-^33P]ATP. Proteome chips were assayed in duplicate in each case. Data analysis was performed as described (J. Ptacek et al., submitted). Briefly, signals were analyzed by a computer algorithm designed to normalize background and identify signals as positive if 3 of 4 spots (each protein is spotted twice on each slide and each kinase or control was tested on 2 slides) were 2 standard deviations above background and the fourth spot was 1.5 standard deviations above background.
On to “YDL220C: GST fusion yeast protein on proteome chip”, for which the “Slide Signal (after normalization)” value is listed as 1.0274.

For the substance “YDR171W: GST fusion yeast protein on proteome chip”, the “Slide Signal (after normalization)” value is reported as 0.442.

On to “YMR229C: GST fusion yeast protein on proteome chip”, for which the “Slide Signal (after normalization)” value came to 2.6954.

Take “YNL007C: GST fusion yeast protein on proteome chip”: the “Slide Signal (after normalization)” value was determined as 0.2239.

Still in this assay, the particulars now being: Table 4, the 25 proteins with highest signal relative to protein amount; [γ-33P]ATP, chips in duplicate.
For “YDL220C: GST fusion yeast protein on proteome chip”, the “Slide Signal (after normalization)” value is given as 1.0274.

“YMR229C: GST fusion yeast protein on proteome chip”: the “Slide Signal (after normalization)” value is on record as 2.6954.
